According to the RNAGym collection of RNA variant scans (doi:10.1073/pnas.2313332121):

B1: TPR t1 (parent)
chain: GACCAAUCUGCCCUCAGAGCUCGAGAACAUCUUCGGAUGCAGAGGAGGCAGGCUUCGGUGGCGCGAUAGCGCCAACGUCCUCAACCUCCAAUGCAUCCCACCACAUGAUGAUGCCUGAAGAGCCUUGGUUUUUUG

Variants of: B1
Test: polymerase ribozyme fitness, log enrichment relative to wild type (log ratio); higher = more active; in vitro selection for triplet polymerase activity
Summary of the method: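 Genotype fitness is the logarithm of its enrichment divided by wild-type enrichment, using inverse-variance-weighted averages of replicates. That logarithm is base 2. Enrichment was measured by Illumina sequencing of input and output libraries from one triplicate in vitro selection round, with frozen incubation at −7 °C, on PCR-built, transcribed mutant libraries of each subunit of a heterodimeric triplet polymerase ribozyme, retaining genotypes with ≥10 input reads and ≥1 read per output.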

Row | Variant | polymerase ribozyme fitness (log ratio)
1 | GACCAAUCUGCCCUCAGACCUCGAGAACAUCUUCGGAUGCAUAGGAGGCAGGCUUCGGUGGUGCGAUAGCGCCAAGGUCCUCAACCUCCAAGGCAUCCCACCACAUGAUGAUGCCUGAAGAGCCUUGGUUUUUUG | -4.02
2 | GAUCAAUCUGCCCUCAGAGCUCGAGAAAAUCUUCGGAUGCAGAGGAGGCAGGCUUCGGUGGCGCGAUAGCGCCAACGUCCUCAACCUCCAAUGCAUCCCACCACAUGAUGAAGCCUGAAGAGCCUUGGUUUUUUG | -2.92
3 | GACCAAUUUGCCCUCAGAGCUCGAGAACAUCUUCGGAUGCAGAGGAGGCAGGCUUCGGUGGCGCGAUAGCGCCAACGUCCUCAACCUCCAAUGCAUCCCACCACAUGAUGAUGCCUUAAGAGCCUUGGUUUUUUG | -1.38
4 | GAUCAACCUGCCCUCAGCGCUCGAGAACAUCUUCGGAUGCAGAGGAGGCAGACUUCGGUGGCGCGAUAGCGCCAACGUCCUCAACCUCCAAUGAAUCCCACCACAUGAUGAUGCCUGAAGAGCCUUGGUUUUUUG | -5.04
5 | GACCAAUCUGCCCUCAGAGCUCGAGAACAUCUUCGGAUGCAGAGGAGGCAGGCUUCGGUGGCGCGAUAGCGCCAACGUCCUGAACCUCCAAUGCAUCCCACCACAUGGUGGUGCCUGAAGCGCCUUGGUUUUUUG | -5.85
6 | GACCAAUCUGCCCUCAGAGCUCGAGAACAUCUUCGGAUGCAGAGGAGGCAGGCUUCGGUGGCGCGAUAGCGACAACGUCCUCAACCUCCAAUCCAUCCCACCACAUGAUGAUGUUUGAAGAGCCUUGGUUUUUUG | -6.52
7 | GACCAAUGUGGCCUCAGAGCUCGAGAACAUCUUCGGAUGCAGAGGAGGCAGGCUUCGGUGGCGCGAUAGCGCCAACGUCCUCAACCUCCAAUGCAACCCACCACAUGAUGAUGCCUGAAGAGCCUUGGUUUUUUG | -0.26
8 | GACCAAUCUGCCCCCAGAGCUCGAGAACAUCUUCGGAUGCAGAGGAGGAAGGCUUUGGUGGCGCGAUAGCGCCAACGUCCUCAACCUCCAAGGCAUUCCACCACAUGAUGUUGCCUGAAGAGCCUUGGUUUUUUG | -6.85
9 | GACCAAUCUGCCCUCAGAGCUCGAGAACAUCUUCGGAUGCAGAGGAGGCAGGCUUCGGUGGCGCGAUAGCGCCAACGUCCUCAACCUCCAAAGCAUCCCACCACAUGAUGGUGCCUGAAGAGCCUUGGCUUCUUG | -3.54
10 | GACCAAUCUGCCCUCAGAGCUCGAGAACAUCUUCGGAUGCAGAGGAGGCGGGCUUCGGUGGCGCGAUAUCGCCAACGUCCUCAACGUCCAAUGCAUCCCACCACAUGAUGAUGCCUGAAGAGCCUUGGUUUUUUG | -0.754
11 | GACCAAUCUGCCCUCAGAGCUCGAGAACAUCUUCGGAUGCAGAGGAGGCAGGCUUCGGUGGCGCGAUAGCGCCAACGUCCUCAACCUUCAAUGCAUCACACCACAUGAUGAUGCCUGAAGAGCCUUGGUUUUUUG | -4.94
12 | GACCAAUCUGCCCUCAGAGCUCGAGAACAUCUUCGGAUGCAGAGGAGGCAGGCUUCGGUGACACGAUAGCGCCAACGUCCUCAACCUCCAAUGCAUCCCACCACAUGAUGAUGCCUGAAGAGCCUUGGUUUUUUG | -4.85
13 | GACCAAUCUGCCCUCAGAACUCGAGAACAUCUUCGGAUGCAGAGGAGGCAGGCUUCGGUGGCGCGAUAGCGCCAACGGCCUCAUCCUCCAAUGCAUCCCACCACAUGAUGAUGCUUGAAGCGCCUUGGUUUUUUG | -5.73
14 | GACCAAACUGCCCUCAGAGCUCGAGAACAUCUUCGGAUGCAGAGGAGGCAGGCUUCGGUGGCGCGAUAGCGCCAACGUCCUCAACCUCCAAUGCAUCCCACCCCAUGAUGAUGCCUGAAGAGCCUUGGUUUUUUG | -4.75
15 | GACCAAUCUGCCCUCAGAGCUCGAGAACAUCUUCGCAUGCAGAGGAGGCAGGCUUCGGUGGCGCGAUAGCGGCAACGUCCUCAACCUCCAAUGCAUCCCACAACAUGAUGAUGCCUGAAGAGCCUUGGUUUUUUG | -4.94
16 | GACCAAUCUGCCCUCAGAGCUCGAGAACCUCUUCGGAUGCAGAGGAGGCUGGCUUCGGUGGCGCGAUAGCGCCAACGUCCUCAACCUCCAAUGCAUCCCACCAAAUGAUGAUGGCUGAAGAGCCUUGGUUUUUUG | -8.27
17 | GACCAAUCUGCCCUCAGAGCUCGAGAACAUCUUCGGAUGCAGAGGAGGCAGGCUUCGGUGGCGCGAUAGCGCCAACGUCCUCAACCUCCAAUGCAUCUCACCACAUGAUGAUGCCUGAACAGCCUUGGUUUUUUG | -0.208
18 | GACCAAUCUGCCCUCAGAGCUCGCGAACAUCUUCGGCUGCAGAGGAGGCAGGCUUCGGUGGCGCGAUAGCGCCAACGUCCUCAACCUCCAAUGCAUCCCACCACAUGAUGAUGCCUGAAGUGCCUUGGUUUUUUG | -6.59
19 | GACCAAUCUGCCAUCAGAGCUCGAGAACAUCUUCGGAUUCAGAGGAGGCAGGCUUCGGGGGCGCGAUACCGCCAACGUCCUCAACCUCCAAUGCAUCCCACCACAUGAUGAUGCCUGAAGAGCCUUGGUUUUUUG | -3.36
20 | GACCAAUCUGGCCUCAGAGCUCGAGAACAUCUUCGGAUGCCGAGGAGGCAGGCUUCGGUGGCGCGAUAGCGCCAACGUCCUCAACCUCCAAUGCAUCCCACCACAUGAUGAUGCCUGAAGAGCCUUGGUUUUUUG | -0.501
21 | GACCAAUCUGCCGUCAGAGCUGGAGAACAUCUUCGGAUGCAGAGGAGGCAGGUUUCGGUAGCGCGAUAGCGCCAACGUCCUCAACCUCCAACGCAUCCCACCACAUGAUGAUGCCUGUAGAGCCUUGGUUUUUUG | -5.33

Row | Variant | polymerase ribozyme fitness (log ratio)
22 | GCCCAAUCUGCCCUCAGAGCUCGAGAACAUCUUCGGAUGCAGAGGAGGCAGGCUUCGGUGGCGCGAUAGCGCCAACGUCCUCAACCGCCAAUGCAUCCCACCACAUGAUGAUGCCUGAAGAGCCUUGGUUUUUUG | -1.65
23 | GACCAAUCUGCACUCAGAGCUCGAGAACAUCUUCGGAUGCAGAGGAGGCAGGCUUCUGUGGCGCGAUAGCUCCAACGUCCUCAACCUCCAAUGCAUCCCACCACAUGAUGAUGCCUGAAGAGCCUUGGUUUUUUG | -0.629
24 | GACCUAUCUGCCCUCAGAGCUCGAGAACAUCUUCGGAUGCAGAGGAGGCAGGCUUCGGUGGCGCGAUAGCGCCAACGUCCUCAACCUCCAAUGCCUCCCACCACAUGAUGAUGCCUGAACAGCCUUGGUUUUUUG | 0.108
25 | GACCACUCUGCCCUCAGAGCUGGAGAACAUCUUCGGAUGCAGCGGAGGCAGGCUUCGGAGGCGCGAUAGCGCCAACGUCCUCAACCCCCAAUGCAUCCCACCACAUGAUGAUGCCUGGAGAGCCUUGGUUUUUUG | -5.18
26 | GAAGAAUCUACCCUCAGAGCUCGAGAACAUCUUCGGAUGCAGAGGAGGCAGGCUUCGGUGACGCGAUAGCGCCAACGUCCUCAACCUCCAAUGCAUCCCACCACAUGAUGAUGCCUGAAGAGGCUUGGUUUUUUG | 0.689
27 | GACCAAUCUGUCCUCAGAGCUCGAGAACAUCUUCGGAUGCAGAGGAGGCAGGCUUCGGUGGCGCGAUAGCGGCAACGUCCUCAACCUCCAAUGCAUCCCACCACAUGAUGAUGCCUGAAGAGCCUUGGUUUUUUG | -0.586
28 | GACCAAUCUGCCCUCAGAGCUCGAGAACAUCUUCGGAUGCAGAGGAGGCAGGCUUCGGUGACGCGAUAGCGCCAACGUCCUCAACCUCCAAUGCAUCCCACCACAUGAUGAUGCCUGAACAGCCUUGGUUUUUUG | 1.14
29 | GACCAAUCUGCCCUCAGAGCUCGAGGACAUCUUCGGAUGCAGAGGAGGCAGGGUUCGGUGGCGCGAUAGCGCCAACAUCCUCAACCUCCAAUGCAUCCCACCACAUGAUGAUGCCUGAAGAGCCUUGGUUUUUUG | -2.93
30 | GACCAAUCUGCCCUCAGAGCUCGAGAACAUCUUCGGAUGCAGAGGAGGCAGGCUUAGGUGGCGCGAUAGCGCCAACGCCCUCAACCUCCAAUGCAUCCCACCACAUGAUGAUGCCUGAAGAGCCUUGGUUUUUUG | -0.456
31 | GACCAAUCUGCCCUCAGAGCUCGAGAACAUCUUCGGAGGCAGAGGAGGCAGGCUUCGGUGGAGCGAUAGCGCCAACGUCCUCAACCUCCAAUGCAUCCCACCACAAGAUGAUUCCUGAAGAGCCUUGGUUUUUUG | -6.66
32 | GACCAAUCUGCCCUCAGAGCUCGAGAGCAUCUUCGGAUGCAGAGGAGGCAGGCUUCGGUGACGCGAUAGCGCCAACGUCCCCACCCUCCAAUGCAUCCCACCAUAUGAUUAUGCCUGAAGAGCCUUGGUUCUUUG | -2.62
33 | GACCAAUCUGCUCUCAGAUCUCGAGAACAUCUUCGGAUGCAGAGGAGGCAGGCUUCGGUGGCGCGAUAGCGCCAACGUCCUCAACCUCCAAUGCAUCCCACCACAUGAUGAUGCCUGAAGAGCCUUGGUUUUUUG | -2.49
34 | GACCAAUCUGCCCUCAGAGCUCGAGGACAUCUUCGGAUGCAGAGGAGGCGGGCUUGGGUGGCGCGAUAGCGCCAACGUCCUGAACCUCCAAUGCAUCCCACCACAUGAUGAUGCCUGAAGAGCCUUGGUUUUUUG | -3.42
35 | GACCAAUCUGCCCUCAGAGCUCGAGAACAUCUUCGGAUGCAGAGGAGGCAGACUUCGGUGGCGCGAUAGCGCCAACGUCCUCAACCUCCAAUGCAUCCCACCACAUGAUGAUGCCUGAAGAGCCUUGGUCUUUUG | -0.159
36 | GACCAAUCUGCCCUCAGAGCUCGAGAACAUCUUCGGAUGCAGAGGGGGCAGGCUUAGGUGGCGCGAUAGCGCCAACGUCCUCAACCUCCAAUGCAUCCCACCACAUGAUGAUGCCUGAAGAGCCUUGGUUUUGUG | -0.786
37 | GACCAAGAUGCCCUCAGAGCUCGAGAACAUCUUCGGAUGCAGAGGAGGCAGGCUUCGGUGGCGCGAUAGCGCCAACGUCCUCAACUUCCAAUGCAUCCCACCACAUGAUGAUGCCUGAAGAGCCUUGGUUUUUUG | 0.828
38 | GACCAAUCUGACCUCAGAGCUCGAGAACAUCUUCGGAUGCAGAGGAGGCAGGCUUCGGUGGCGCGAUAGCGCCAACGUCCUCAACCUCCAAUGCAUCCCACCACAAGAUUAUGCCUGAAGAGCCUUGGUUUUUUG | -1.4
39 | GACCAAUCGGCCCUCAGAGCUCGAGAACAUCUUCGGAUGCAGAGGAGGCAGGCUUCGGUGGCGCGAUAGCGCCAAUGUCCUCAACCUCCAAUGCAUCCCACCACAUGAUGAUGCCUGAAGAGCCUUGGUUUUUUG | 0.331
40 | GACCAAUCUGCCCUCAGAGCUCGAGAACAUCUUCGGAUGCAGAGGAGGCUGGCUUCGGUGGCGCGAUAGCUCCAACGUCCUCAACCUCCAAUGCAUCCCACCACAUGAUGAUGCCUGAAGAGCCUUGGUUUUUUG | -1.94
41 | GACCAAUCUGCCCUUAAAGCUCGAGAACAUCUUCGGAUGGAGAGGAGGCAGGCUUCGGUGGCGAGAUAGCGCCAACGUCCUCAACCUCCGAUGAAUCCCACCAGAUGAUGAUGCCUGAACAGCCUUGGUUUUUUG | -7.98
42 | GACCAAUCUGCCCUCAGAGCUCGAGAACAUCUUCGGAUGCAGAGGAGUCAGGCUUCCGUGGCGCGAUAGCGCCAACGUCCUCAACCUCCAAUGCAUCCCACCACAUGAUGAUGCCUGAAGAGCCUUGGUCUUUUG | 0.0456
